The DeepSol protein solubility set

Assay: soluble on expression in E. coli; label from the status in PepcDB or PDB records
With “MSLTLQQKELFQKSPLLLENGETLSPVLVGYETYGTLSASRDNCILLEHALTGTAHAAKHFEDDAPGWWDDYIGPGKTIDTDKYFLVCTNVFGGCSGTTGPSSINPKTGEPFRLQFPGFSIKDIIKVQRELLEQLGVTRIVSVIGGSMGGMQATEWAIDYADITDSIINIASPLAAGPDAIGYNLIMRMAILNDPDFNGGNYVGQPEGGLATARMVGMMTYRTSELFSKRFERFTVAESSPAAFSKEHFQIESYLQYQGDTFVERFDANSYLYLTKAIDLFDVTAPAKDDLPAFSKIKIPYLLIGITTDQLFRIHDLRRGYELLKEWDVPVTYHEVASEYGHDAFLVEKEVPKFEPLIRSFLSNLPVKSIEGHHHHHH” the “soluble on expression in E. coli” value was “soluble”.
For “MGSDKIHHHHHHMTICYNFAYLDEGTKKKIRRTLLKAVAIPGHQIPFASREMPLPYGWGTGGIQVTAAVIGPEDILKVIDQGSDDTTNAVSIRNFFRSTTGVRTTTSTREATLIQTRHRIPETPLHAGQMLIYQVPMPEPLFKLEPRVSETIALHAMADYSLMYLKLYDQITRYGRIAIGYEYPVIVHDRYLTSSSPIPAYDVPKMHMSPALQLFGAGREKRLYAIPPYTRVIPLDFTDYPFDPVNTWQPCALCGAVESYKDEIVIDDAGNRQFICSDTDFCEHRR”, the “soluble on expression in E. coli” value was “not soluble”.
In the case of “MAHHHHHHMLRFTVPALVVFQNAYAPRVLNRMTPDRMELTMLILKERKKKVRYLGSNFQGFNDRVHLFNAQGGVRRGTRYIIETHHNRIQFKHRSRNNSMVDVRAVKMAGSQYDSIGNYTRMTWDNSLCTTNLLSDPNFKRHFKNMPKEETIGVLEEWGVRYILLDEIRKP”, the “soluble on expression in E. coli” value is reported as “not soluble”.
In the case of “SADDFGFFSSSESGAPEAAEEDPAAAFLAQQESEIAGIENDEGFGAPAGSHAAPAQPGPTSGAGSEDMGTTVNGDVFQEANGPADGYAAIAQADRLTQEPESIRKWREEQRKRLQELDAASKVTEQEWREKAKKDLEEWNQRQSEQVEKNKINNRASEEAFVKESKEETPGTEWEKVAQLCDFNPKSSKQCKDVSRLRSVLMSLKQTPLSR”, the “soluble on expression in E. coli” value is reported as “soluble”.
For “MGSDKIHHHHHHMCIYCISKQVFCLSGLRFPYGFTPMGLHLRSLNMAYINKSNVSILRSLSCASISLYYSMSAAASHLEVDDPALAERCELEMGWQQPRSDHARTQLNATTTCSRNQWEWHVGLASNVNDDIREEQAEVGIKLPLNLNSHSDSNRQQDDWHSALVINLQKNLDASNELATEVFGIFGKTLSDSDVSLYANVGFTHEFNQSTQLLVGIAAAHELSSHHRVITELYQKELSETAYQFAYQHTPQQQLQLELSLGNALRGNALQLGADITFYFGH”, the “soluble on expression in E. coli” value was “not soluble”.
For “KVWWTLPYGPHEDEKNLTLEDWRDRVLDSTREAVAIRQRAAVDVGVLLSGGVDSSMLVGLLREVGVEDLSTFSIGFQDAGGERGDEFQYSDLIAKHYGTRHHQLRIQESEIIEQLPAAFRAMSEPMVSHDCIAFYLLSREVAKHCKVVQSGQGADELFAGYHWYPQVDGASDPVAAYRYAFVDRSYAEYADTVQPKWRTANDAAGDFVRDHFAQPGASAAVDKALRLDSTVMLVDDPVKRVDNMTMAWGLEARTPFLDYRLVELSARIPGKFKLPDGGKQVLKEAARLVIPSEVIDRKKGYFPVPGLKHLQGDTLNWVRELLTDPSQDRGLFNPTMVDKLLTNPEGQLTPLRGSKLWQLAALNLWLSEQ”, the “soluble on expression in E. coli” value was “not soluble”.
With “MMHTWFECKIRYEKVMENGMNKKVTEPYLVDALSFTEAEARIIEEITPYISGEFTVSDIKRANYSELFPSEEDAADRWFKCKLFFITLDEKSGAEKKTSTTVLVQASDLRDAVKKLDEGMKGTMADYVIASVAETAIMDVYPYEAEPDVKPEFPDAGKTE” the “soluble on expression in E. coli” value was “not soluble”.
In the case of “MNIIKGNIASPLGFSADGLHAGFKKKKLDFGWIVSEVPANVAGVFTTNKVIAAPLKLTKNSIEKSGKMQAIVVNSGIANSCTGKQGEKDAFKMQQLAANKLQIQPEYVGVASTGVIGKVMPMSILKNGFSKLVKNGNADDFAKAILTTDTHTKTCVVNEEFGSDTVTMAGVAKGSGMIHPNLATMLAFITCDANISSQTLQQALKDVVEVTFNQITVDGDTSTNDMVLVMSNGCTNNNEIKKDSEDYYKFKQMLLYIMTDLAKSIARDGEGASKLIEVTVKGAKESSAARMIAKSVVGSSLVKTAIFGEDPNWGRIIAAAGYAKTYFDINQVDIFIGRIPVLIRSSPVKYDKEEIQEIMSAEEISIQLDLHQGNCEGQAWGCDLSYDYVKINALYTTLEHHHHHH”, the “soluble on expression in E. coli” value is reported as “not soluble”.
For “GSEPYSLTAQQSSLIREDKSNAKLWNEVLASLKDRPASGSPFQLFLSKVEETFQCICCQELVFRPITTVCQHNVCKDCLDRSFRAQVFSCPACRYDLGRSYAMQVNQPLQTVLNQLFPGYGNGR”, the “soluble on expression in E. coli” value was “soluble”.
With “MDKSSDAFRTISEVAELLELPQHVLRFWETRFKQIKPMKRGGGRRYYRPVDIDLLNGIKQLLYDQGYTIKGVQRLLKENGVAFVTAFGNGDLDAMNVVIEKKHGEQTSEVTSSKPKKSSFGLLSFMRNEVETSIGSVNVYKDKTDKALLQEILFELIECKRVLDRAR” the “soluble on expression in E. coli” value was “not soluble”.
In the case of “MAHHHHHHMGLEDIDVDDPPLTTSATPQTQKQCSSTLPNPPVTNVVKGASAPVDLVDLFGDLNVSTATPVVVTAATVGAATNSKNQAHYAGNTADDDFEWVTAKPSVAPPLAPKSYQGNAGTSNDPLDSFFSQAVPTPAATETAKPPDSSNDLFDFSEPVERVKYTNENTLLEAFANQGKANQGGGSKGPTLADLSKGSSDNVVKARLLKLMNYYDVLGVTPDATEAVIRQRFKKKALELHPDRVGRDQTPEEVELFKVMTKAHEVLTDPEERAKYDAQLLGGVPSGSPDSDWFFPPS”, the “soluble on expression in E. coli” value is reported as “soluble”.
In the case of “MVGIRRNKGHGEATIFTLRELADATNNFSTECLLGRGGFGSVYKAFLNDRQVVAVKQLDLNGLQGNREFLVEVLMLSLLHHPNLVKLFGYCVDGDQRLLIYEYMPLGSLEDRLHDLRPGQEPLDWTTRMKIAADAAAGLEYLHDEAIPAVIYRDIKPSNILLGEGYNAKLSDFGLAKLGPVGDKTHVTTRVMGTHGYCAPEYLSTGKLTIKSDIYSFGVVFLELITGRRALDSNRPPDEQDLVAWARPLFKDQRKFPKMADPSLHGHFPKRGLFQALAIAAMCLQEKAKNRPSIREVAVALSYLASQTHESQNTAARHTLPGPSVPRVLDNQINQDTSLPSQHGVHMPPLAGTDHMVQEVKENCRSSSHRPGRGRVTPNGADRERALAEANVWVEAWRRQEKTSKMR”, the “soluble on expression in E. coli” value is reported as “not soluble”.
For “MAGDPMSLPGLSAAADQTIKIGAQSMSESEIIASMLGQLIEHHTDLKTTTIKNLGSNAVQQQALMNGEIDIAATRYTGDALTGTLRMEPEKDPDKALALTQREFKKRYDLKWYDSYGFDNTYAFTVSKELADQYHLETVSDVKKWAPQLKLGVDNYWMKLKGNGYQDFTKTYGMTFGGTYPMQIGLVYDAVKSGKMDIVLAYSTDGRIKSYGLKMLKDDKQFFPPYDCSPVVPEKVLKEHPELEGIIKKMLGKIDTATMQELNYEVDGNLKEPSVVAKEYLEKHRYFESLEHHHHHH”, the “soluble on expression in E. coli” value was “soluble”.
In the case of “MGSDKIHHHHHHMKRTPGPNKRGSKRMQPNLKFSRGEFADRLAKTRRAMEARGVDLLIVSDPSNMAWLTGYDGWSFYVHQAVIVPPSGEPVWYGRGQDANGAKRTAYLAQNNIVGYADHYVQSTERHPMDFLSSVLSDRGWGKLTIGVEMDNYWFSAAAFASLQKHLPNARFVDATALVNWQRAVKSPTEIDYMRKAARIVEAMHQRIFDRIEIGMRKCDLVAEIYDAGTRGVDGIGGDYPAIVPLLPSGVDASAPHLTWDDQPMKRGEGTFFEIAGCYNRYHCPLSRTVFLGKPTQEFLDAEKATLEGMEAGLAAAKPGNACEDIANAFFAVLKKYGIVKDNRTGYSIGLSYPPDWGERTMSLRPGDHTELKPGMTFHFMTGLWLETMGLEITESILITETGVECLANVPRKLVVKN”, the “soluble on expression in E. coli” value is reported as “not soluble”.
In the case of “MAGDPMKNKSLLLAVAISATLLAGCKNGVNGNLIASSGMSTYKAATLSDADVKALSNNACKQMDSENQLAGSKSKYTKRLSKIAKALGNNIDGTPVSYKVYMTSDINAWAMANGCVRVYSGLMDLMTDNEIEGVLGHELGHVSLGHSRKAMQTAYATLAARDAISATSGVAAQLSQSQLGDLAEGVINSAFSRSQESDADDFSYDLLKKRGINTQGLVTAFDKFATMDAGHAKSLMDSHPASADRAQHMRDRIAEDKKLEHHHHHH”, the “soluble on expression in E. coli” value is reported as “soluble”.
In the case of “SAASEHRCVGCGFRVKSLFIQYSPGNIRLMKCGNCKEVADEYIECERMIIFIDLILHRPKVYRHVLYNAINPATVNIQHLLWKLVFAYLLLDCYRSLLLRKSDEESSFSDSPVLLSIKVRSFLFNGLN”, the “soluble on expression in E. coli” value is reported as “soluble”.
In the case of “MQYINIANRGVKSLSPYQAGKPIEELERELGISNIVKLASNENPFGFPESAKKAIFEQLDKLTRYPDANGFELKQTIAKKFGVQPNQITLGNGSNDLLELFAHTFATEGDEIMYSQYAFIVYPLVTKAINAIVKEIPAKNWGHDLQGFLTALSDKTKLIYIANPNNPTGNFLTSQEIEDFLAEVPENVIVVLDEAYTEFTRSEERVDSFSLLKKYSNLIISRSLSKAYGLAGLRIGYAVSNPEIADLLNRVRQPFNCNSLALTAAVAVMNDDKFVEKVAENNRIEMRRYEDFCQKNQLDYIPSKGNFITIDFKQPAAPIYDALLREGVIVRPIAGYGMPNHLRISIGLPEENDKFFTALSKVLKFA”, the “soluble on expression in E. coli” value is reported as “not soluble”.
In the case of “MAHHHHHHMRGWTAIRSPQLPTLHHRTVVEHTRPQKKKAKKKHGGRVRLCVWRCRCLPALAAKKTKQEGKKCVLRPTSPRRTPTRHGSLSAPFVAAPPHACSRRGAQGRRHERVGGCASGAVGRETHGTPHRKSAEETIKRGKSRKKKKTSIVIAPKSKKEGMWGVRELKRTN”, the “soluble on expression in E. coli” value is reported as “soluble”.
With “MSEVTRSLLQRWGASLRRGADFDSWGQLVEAIDEYQILARHLQKEAQAQHNNSEFTEEQKKTIGKIATCLELRSAALQSTQSQEEFKLEDLKKLEPILKNILTYNKEFPFDVQPI” the “soluble on expression in E. coli” value was “soluble”.
With “MSLALLLRVRRLRLDRAERAQGRQLLRVRAAAQEHTERQAAQRDYRDWRLAEEQRLFLACQAAMLDRRRLEAWQQQVGLLREKEAGLEQDCAEAAQRLEGERERLRQCRRELLERQRQLEKFAELERHVDAERQGLRERSEEGELEEFTRHETWPCSSLEHHHHHH” the “soluble on expression in E. coli” value was “not soluble”.
With “SNAMIAKEFETFLLGQEETFLTPAKNLAVLIDTHNADHATLLLSQMTYTRVPVVTDEKQFVGTIGLRDIMAYQMEHDLSQEIMADTDIVHMTKTDVAVVSPDFTITEVLHKLVDESFLPVVDAEGIFQGIITRKSILKAVNALLHDFSKEYEIRCQ” the “soluble on expression in E. coli” value was “soluble”.
In the case of “MRYNEKELQALSRQPAEMAAELGMRGPKKGSVLKRRLVKLVVNFLFYFRTDEAEPVGALLLERCRVVREEPGTFSISFIEDPERKYHFECSSEEQCQEWMEALRRASYEFMRRSLIFYRNEIRKVTGKDPLEQFGISEEARFQLSGLQA”, the “soluble on expression in E. coli” value is reported as “soluble”.
With “MAHHHHHHMEKYEFPEDYVNPRNIPRIAYIPDVAAYVSNGGGADTVISNLLMESSKYEHMEKRLVSSLANLDYKIPTIKKTLNSLEFLQKQLEEAEQQEEDGKRAGIRSYYCLTDSVFGEAIVRPQKTVHLWMGAKVMVEYTFEEASALLKKNLSNAEVNMRNTKEDLAWLQEQITNLQINISRVYNYDLKNKRAKD” the “soluble on expression in E. coli” value was “not soluble”.
For “MTITQKGDHHSILAKLRHRNIILAKLEKAYKIPSSNIKNIWTQLNEKIEHTIADFIRLLAKQMFINRYLKSCIRISKAEKKRDTVSLVHHLFYNNAA”, the “soluble on expression in E. coli” value was “not soluble”.
